Results: patent US6462177B1, “Mammalian blood loss-induced gene, kd312” (Amgen Inc., priority 1998, dated 2002)
Entries after “also recorded” stand apart in the source; their conditions may differ. Values belong to the molecule of their own block, whether it stands above or below them.

Columns and labels:
[1] = test system: 293 cells; experiment: Establishment of 293 cell lines constitutively expressing genes from pCEP4; type: cell-based, human; settings: no stable cell line could be established
Method: (§1) Transfections of 293 cells with the plasmid pCEP4 or its derivatives were performed by using LipofectAMINE Reagent and the protocol supplied with it by Gibco BRL. Transfected cells were grown in Gibco BRL D-MEM high-glucose medium that lacked sodium pyruvate and was supplemented with 10% FBS and 300 μg/ml hygromycin. Fluorescence-activated cell sorting (FACS) for apoptosis assays was performed according to Polverino and Patterson, J. Biol. Chem. 272, No. 11: 7013-7021 (1997).
(§2) Involvement of kd312 in apoptosis was tested in the human embryonal kidney cell line 293 following expression of this gene from the episomal expression vector pCEP4. Derivatives of 293 cells constitutively expressing human kd312, bcl-2, R-ras, and murine H-ras genes from pCEP4 were established. Expression of each gene was confirmed by Western blotting experiments (data not shown). […] It has been shown that R-ras promotes apoptosis following expression in 32, D3, FL5.12, and NIH3T3 cells. […] The levels of inhibition following expression of the ras genes, particularly R-ras, were unmistakably lower than those resulting from the expression of kd312.

[2] = test system: human embryonal kidney cell line 293; experiment: FACS analysis of geranylgeraniol-induced apoptosis in 293 cells transfected with various genes; type: cell-based; settings: 293 cells constitutively expressing the gene from pCEP4; 10 μM geranylgeraniol; propidium iodide FACS
Method: FIG. 4 depicts inhibition of apoptosis by human kd312 as compared to other proteins (as indicated). Shown graphs are the results from FACS analysis of apoptosis induced by geranylgeraniol in 293 cells transfected with various genes. Cells were treated with 10 μM geranylgeraniol for various times as indicated. Subsequently, the cells were washed and stained with 50 μg/ml propidium iodide in 3.8 mM sodium citrate pH 7.0 and analyzed using a FACScan flow cytometer. The extent of apoptosis was determined by measuring the proportion of cells displaying hypo-diploid DNA content. The data represent the average of 2 independent experiments.
as §1, §2

[3] = molecular target: T1, human Raf (Homo sapiens, UniProt P04049); experiment: Yeast two-hybrid interaction test; type: binding; settings: yeast two-hybrid system
T1 construct: expressed in transfected cells
Description: (§3) To define the way that kd312 exerts its function we have tested its interaction with human Raf, H-Ras, and bcl-2 using a yeast two-hybrid system. […] Work is in progress to search for kd312 interacting proteins using the same yeast system.

[4] = molecular target: T2, bcl-2 (Homo sapiens, UniProt P10415); experiment: Yeast two-hybrid interaction test; type: binding; settings: yeast two-hybrid system
T2 construct: expressed in transfected cells
Description: as §3

[5] = molecular target: T3, H-Ras (Homo sapiens, UniProt P01112); experiment: Yeast two-hybrid interaction test; type: binding; settings: yeast two-hybrid system
T3 construct: expressed in transfected cells
Description: as §3

T2 sequence (P10415 whole entry): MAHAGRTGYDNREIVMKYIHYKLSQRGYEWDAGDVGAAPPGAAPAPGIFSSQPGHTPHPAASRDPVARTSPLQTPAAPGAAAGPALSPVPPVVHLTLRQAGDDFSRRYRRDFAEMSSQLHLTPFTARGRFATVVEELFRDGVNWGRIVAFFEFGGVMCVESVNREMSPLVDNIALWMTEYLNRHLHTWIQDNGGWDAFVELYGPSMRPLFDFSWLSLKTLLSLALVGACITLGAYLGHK

Molecule: bax: murine bax gene product; expression in 293 cells led to cell death
outcome of gene expression in 293 cells [1]: invariably led to cell death

Molecule: bcl-2: bcl-2 gene product, a potent apoptosis inhibitor, expressed from pCEP4 in 293 cells [reference compound]
effect on geranylgeraniol-induced apoptosis (proportion of cells with hypo-diploid DNA content) [2]: protected 293 cells from geranylgeraniol-induced apoptosis

interaction with human Raf [3]: No interaction | interaction with bcl-2 [4]: No interaction | interaction with H-Ras [5]: No interaction
B1: kd312: human kd312 protein (281 amino acids), blood loss-induced, distantly related to the Ras family, expressed from cDNA (protein)
chain: MKLAAMIKKMCPSDSELSIPAKNCYRMVILGSSKVGKTAIVSRFLTGRFEDAYTPTIEDFHRKFYSIRGEVYQLDILDTSGNHPFPAMRRLSILTGDVFILVFSLDNRDSFEEVQRLRQQILDTKSCLKNKTKENVDVPLVICGNKGDRDFYREVDQREIEQLVGDDPQRCAYFEISAKKNSSLDQMFRALFAMAKLPSEMSPDLHRKVSVQYCDVLHKKALRNKKLLRAGSGGGGGDPGDAFGIVAPFARRPSVHSDLMYIREKASAGSQAKDKERCVIS
effect on geranylgeraniol-induced apoptosis (proportion of cells with hypo-diploid DNA content) [2]: protects the cells from apoptosis; also recorded: protected 293 cells from geranylgeraniol-induced apoptosis; also recorded: protects 293 cells from chemical-induced apoptosis

B2: R-ras: human R-ras gene product of the Ras family, expressed from pCEP4 in 293 cells (protein, UniProt P10301 1-215, looked up)
Ras-related protein R-Ras: MSSGAASGTGRGRPRGGGPGPGDPPPSETHKLVVVGGGGVGKSALTIQFIQSYFVSDYDPTIEDSYTKICSVDGIPARLDILDTAGQEEFGAMREQYMRAGHGFLLVFAINDRQSFNEVGKLFTQILRVKDRDDFPVVLVGNKADLESQRQVPRSEASAFGASHHVAYFEASAKLRLNVDEAFEQLVRAVRKYQEQELPPSPPSAPRKKGGGCPC
effect on geranylgeraniol-induced apoptosis (proportion of cells with hypo-diploid DNA content) [2]: inhibited apoptosis
